US20150344570A1 (published 2015)

T1: FcγRIIb extracellular domain with C-terminal His tag (human, UniProt P31994 43-217)
T1 construct: extracellular domain; also called FcgRIIb; 2b; not shown: His tag at the C terminus
T1 sequence (looked up): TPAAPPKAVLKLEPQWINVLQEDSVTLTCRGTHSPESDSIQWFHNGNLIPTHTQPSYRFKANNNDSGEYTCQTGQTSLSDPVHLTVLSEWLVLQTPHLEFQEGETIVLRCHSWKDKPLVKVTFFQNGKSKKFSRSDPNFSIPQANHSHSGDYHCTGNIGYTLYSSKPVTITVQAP

B1: GpH7-A5/GpH7-B3 variant G236_10E/GpL16-k0 (antibody, human IgG1, kappa)
heavy 1: not shown
heavy 2: not shown
light: DIVMTQSPLSLPVTPGEPASISCQASESLVHSNRNTYLHWYLQKPGQSPQLLIYKVSNRFSGVPDRFSGSGSGTDFTLKISRVEAEDVGVYYCSQNTHVPPTFGQGTKVEIERTVAAPSVFIFPPSDEQLKSGTASVVCLLNNFYPREAKVQWKVDNALQSGNSQESVTEQDSKDSTYSLSSTLTLSKADYEKHKVYACEVTHQGLSSPVTKSFNRGEC
notes: also called He Ab G236_10E
B2: GpH7-A5/GpH7-B3 variant L328_02A/GpL16-k0 (antibody, human IgG1, kappa)
heavy 1: not shown
heavy 2: not shown
light: B1 light
notes: also called He Ab L328_02A
B3: GpH7-A5/GpH7-B3 variant I332_10E/GpL16-k0 (antibody, human IgG1, kappa)
heavy 1: not shown
heavy 2: not shown
light: B1 light
notes: also called He Ab I332_10E
B4: GpH7-A5/GpH7-B3 variant K326_04F/GpL16-k0 (antibody, human IgG1, kappa)
heavy 1: not shown
heavy 2: not shown
light: B1 light
notes: also called He Ab K326_04F
B5: GpH7-A5/GpH7-B3 variant K334_14T/GpL16-k0 (antibody, human IgG1, kappa)
heavy 1: not shown
heavy 2: not shown
light: B1 light
notes: also called He Ab K334_14T
B6: GpH7-A5/GpH7-B3 variant K326_16H/GpL16-k0 (antibody, human IgG1, kappa)
heavy 1: not shown
heavy 2: not shown
light: B1 light
notes: also called He Ab K326_16H
B7: GpH7-A5/GpH7-B3 variant L328_13S/GpL16-k0 (antibody, human IgG1, kappa)
heavy 1: not shown
heavy 2: not shown
light: B1 light
notes: also called He Ab L328_13S
B8: GpH7-A5/GpH7-B3 variant L235_20W/GpL16-k0 (antibody, human IgG1, kappa)
heavy 1: not shown
heavy 2: not shown
light: B1 light
notes: also called He Ab L235_20W
B9: GpH7-A5/GpH7-B3 variant H268_01G/GpL16-k0 (antibody, human IgG1, kappa)
heavy 1: not shown
heavy 2: not shown
light: B1 light
notes: also called He Ab H268_01G
B10: GpH7-A5/GpH7-B3 variant T335_07I/GpL16-k0 (antibody, human IgG1, kappa)
heavy 1: not shown
heavy 2: not shown
light: B1 light
notes: also called He Ab T335_07I
B11: GpH7-A5/GpH7-B3 variant S239_10E/GpL16-k0 (antibody, human IgG1, kappa)
heavy 1: not shown
heavy 2: not shown
light: B1 light
notes: also called He Ab S239_10E
B12: GpH7-A5/GpH7-B3 variant I332_04F/GpL16-k0 (antibody, human IgG1, kappa)
heavy 1: not shown
heavy 2: not shown
light: B1 light
notes: also called He Ab I332_04F
B13: GpH7-A5/GpH7-B3 variant G237_20W/GpL16-k0 (antibody, human IgG1, kappa)
heavy 1: not shown
heavy 2: not shown
light: B1 light
notes: also called He Ab G237_20W
B14: GpH7-A5/GpH7-B3 variant P331_20W/GpL16-k0 (antibody, human IgG1, kappa)
heavy 1: not shown
heavy 2: not shown
light: B1 light
notes: also called He Ab P331_20W
B15: GpH7-A5/GpH7-B3 variant H268_09D/GpL16-k0 (antibody, human IgG1, kappa)
heavy 1: not shown
heavy 2: not shown
light: B1 light
notes: also called He Ab H268_09D
B16: GpH7-A5/GpH7-B3 variant S337_16H/GpL16-k0 (antibody, human IgG1, kappa)
heavy 1: not shown
heavy 2: not shown
light: B1 light
notes: also called He Ab S337_16H
B17: GpH7-A5/GpH7-B3 variant H268_10E/GpL16-k0 (antibody, human IgG1, kappa)
heavy 1: not shown
heavy 2: not shown
light: B1 light
notes: also called He Ab H268_10E
B18: GpH7-A5/GpH7-B3 variant H268_18N/GpL16-k0 (antibody, human IgG1, kappa)
heavy 1: not shown
heavy 2: not shown
light: B1 light
notes: also called He Ab H268_18N
B19: GpH7-A5/GpH7-B3 variant S267_06M/GpL16-k0 (antibody, human IgG1, kappa)
heavy 1: not shown
heavy 2: not shown
light: B1 light
notes: also called He Ab S267_06M
B20: GpH7-A5/GpH7-B3 variant I332_06M/GpL16-k0 (antibody, human IgG1, kappa)
heavy 1: not shown
heavy 2: not shown
light: B1 light
notes: also called He Ab I332_06M
B21: GpH7-A5/GpH7-B3 variant K334_05P/GpL16-k0 (antibody, human IgG1, kappa)
heavy 1: not shown
heavy 2: not shown
light: B1 light
notes: also called He Ab K334_05P
B22: GpH7-A5/GpH7-B3 variant K334_03V/GpL16-k0 (antibody, human IgG1, kappa)
heavy 1: not shown
heavy 2: not shown
light: B1 light
notes: also called He Ab K334_03V
B23: GpH7-A5/GpH7-B3 variant K326_06M/GpL16-k0 (antibody, human IgG1, kappa)
heavy 1: not shown
heavy 2: not shown
light: B1 light
notes: also called He Ab K326_06M
B24: GpH7-A5/GpH7-B3 variant S267_19Q/GpL16-k0 (antibody, human IgG1, kappa)
heavy 1: not shown
heavy 2: not shown
light: B1 light
notes: also called He Ab S267_19Q
B25: GpH7-A5/GpH7-B3 variant K326_08L/GpL16-k0 (antibody, human IgG1, kappa)
heavy 1: not shown
heavy 2: not shown
light: B1 light
notes: also called He Ab K326_08L
B26: GpH7-A5/GpH7-B3 variant P238_09D/GpL16-k0 (antibody, human IgG1, kappa)
heavy 1: not shown
heavy 2: not shown
light: B1 light
notes: also called He Ab P238_09D
B27: GpH7-A5/GpH7-B3 variant K326_03V/GpL16-k0 (antibody, human IgG1, kappa)
heavy 1: not shown
heavy 2: not shown
light: B1 light
notes: also called He Ab K326_03V

The binders below were run against T1, FcγRIIb extracellular domain with … (assay: SPR, relative binding, HeCon Ab = 100).
Experimental: Analysis of interaction between objective antibody and the FcγR was carried out using Biacore T100 (GE Healthcare). HBS-EP+ (GE Healthcare) was used as the running buffer, and the measurement temperature was set to 25° C. Chips produced by immobilizing the antigen peptide by the amine coupling method to a Series S Sencor Chip CM5 (GE Healthcare), or alternatively, chips produced by allowing preliminarily biotinylated antigen peptides to interact with and immobilize onto a Series S Sensor Chip SA (certified) (GE Healthcare) were used. Antibodies of interest were captured onto an antigen peptide-immobilized chip, and allowed to interact to each FcγR diluted with running buffer. To regenerate and repeatedly use the chip, the antibodies captured on the chip were washed off by reacting 10 mM glycine-HCl, pH 1.5.

| He/Con_2b | Binder |
| --- | --- |
| 110 % of control | B1 |
| 144 % of control | B2 |
| 142 % of control | B3 |
| 155 % of control | B4 |
| 115 % of control | B5 |
| 119 % of control | B6 |
| 149 % of control | B7 |
| 147 % of control | B8 |
| 144 % of control | B9 |
| 106 % of control | B10 |
| 181 % of control | B11 |
| 104 % of control | B12 |
| 193 % of control | B13 |
| 111 % of control | B14 |
| 239 % of control | B15 |
| 105 % of control | B16 |
| 230 % of control | B17 |
| 156 % of control | B18 |
| 210 % of control | B19 |
| 105 % of control | B20 |
| 105 % of control | B21 |
| 125 % of control | B22 |
| 165 % of control | B23 |
| 218 % of control | B24 |
| 177 % of control | B25 |
| 221 % of control | B26 |
| 175 % of control | B27 |
